{"source": "paper PMC3844103", "about": "(Biochemistry, 2013)", "binders": {"B1": {"name": "pTyr783 peptide of PLC-γ1 (peptide)", "peptide": "Ac-DYGALYEGRNPGF[pY]VEAN-NH2", "SMILES": "CC(=O)N[C@@H](CC(=O)O)C(=O)N[C@@H](Cc1ccc(O)cc1)C(=O)NCC(=O)N[C@@H](C)C(=O)N[C@@H](CC(C)C)C(=O)N[C@@H](Cc1ccc(O)cc1)C(=O)N[C@@H](CCC(=O)O)C(=O)NCC(=O)N[C@@H](CCCNC(=N)N)C(=O)N[C@@H](CC(N)=O)C(=O)N1CCC[C@H]1C(=O)NCC(=O)N[C@@H](Cc1ccccc1)C(=O)N[C@@H](Cc1ccc(OP(=O)(O)O)cc1)C(=O)N[C@H](C(=O)N[C@@H](CCC(=O)O)C(=O)N[C@@H](C)C(=O)N[C@@H](CC(N)=O)C(N)=O)C(C)C"}}, "target": "T1, C-terminal SH2 (cSH2) domain of PLC-γ1 (rat, UniProt P10686 664-766)", "T1 sequence (looked up)": "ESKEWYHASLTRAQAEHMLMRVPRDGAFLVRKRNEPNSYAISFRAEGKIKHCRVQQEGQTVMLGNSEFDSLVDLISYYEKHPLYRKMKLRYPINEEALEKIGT", "test": "crystal structure", "note": "Non-standard residues stand in square brackets, D forms with d. pY = N[C@@H](Cc1ccc(OP(=O)(O)O)cc1)C(=O)O", "data": [{"binder": "B1", "values": [{"measurement": "binding result", "value": "binds"}]}]}
